Assay [1] addresses T1, AFP158/HLA-A*02:01 complex (human).
T1 construct: flowed over the chip as analyte; also called AFP158 peptide/HLA-A*02:01 complex
Kind of assay: SPR (BIAcore T200), crude scFv captured, complex flowed over. In general terms: In SPR one partner is held on a chip, and binding of the other changes the refractive index at the surface.
Protocol: The experiment was carried out as follows. The crude scFv protein were captured onto the sensorchip. Different concentrations (320, 160, 40 nM) of AFP158/HLA-A*02:01 complex flowed over the sensorchip surface, and were allowed to bind the antibody fragment for 100 s followed by injection of the running buffer to allow dissociation of the complex. On-rate (kd) and off-rate (kd) were calculated based on association and dissociation curve, and were used to estimate the equilibrium dissociation constant (KD).
The 84 muteins were then tested for their selectivity. The 12 recombinant AFP158 homologous peptides/HLA-A*02:01 complex were mixed in three groups (group 1: ZNF566 and ARNTL, group 2: CDC14A, PTP4A1, BRCA2 and RCL1, group 3: OR1I1, OR51B6, OR6C1, ATG9A, RP1 and NR2E1). The binding of the 84 antibodies to these complexes were then measured by method described above.

Assay [2] concerns the target OR51B6 peptide/HLA-A*02:01 complex (recombinant) (human). In words: SPR.
The target of assay [3] is RP1 peptide/HLA-A*02:01 complex (recombinant) (human, UniProt P16213 21-119 (Pongo pygmaeus entry)). In words: SPR.
The target in assay [4] is ZNF566 peptide/HLA-A*02:01 complex (recombinant) (human). In words: SPR.
Assay [5] has as its target NR2E1 peptide/HLA-A*02:01 complex (recombinant) (human). Kind of assay: SPR.
Assay [6] has as its target BRCA2 peptide/HLA-A*02:01 complex (recombinant) (human). In words: SPR.
Assay [7] deals with CDC14A peptide/HLA-A*02:01 complex (recombinant) (human). Kind of assay: SPR.
Assay [8] addresses RCL1 peptide/HLA-A*02:01 complex (recombinant) (human, UniProt P16213 21-119 (Pongo pygmaeus entry)). In words: SPR.
Assay [9] has as its target PTP4A1 peptide/HLA-A*02:01 complex (recombinant) (human). Kind of assay: SPR.
Assay [10] concerns the target OR1I1 peptide/HLA-A*02:01 complex (recombinant) (human). Kind of assay: SPR.
The target in assay [11] is T2, AFP158/HLA-A*02:01 complex (human).
T2 construct: biotinylated on the BSP by BirA for ELISA and panning; also called biotinylated AFP158/HLA-A*02:01 complex; Bio-AFP158
Kind of assay: SPR; vs AS170036 VL1VH1.

A value given as a limit tells only on which side of the number the result lay.

B1: 48-AS170036 VL1VH1-56Y98Q108S (scFv)
scFv: QSALTQPRSVSGSPGQSVTISCAGTSSDVGSENYVSWYQQHPGKAPKLMIYQVNKRASGVPDRFSGSKSGNTASLTISGLQAEDEADYYCASYRSSDQNIVFGGGTKLTVLGGGGSGGGGSGGGGSEVQLVESGGGLVQPGGSLRLSCAASGFTFSSYAMSWVRQAPGKGLEWVSTINSGTYSPYYADSVKGRFTISRDNSKNTLYLQMNSLRAEDTAVYYCAKNFFDGSWFLSPPAMDYWGQGTLVTVSSHHHHHH
notes: Crude scFv mutein of AS170036 VL1VH1
In the case of B1, in assay [1], the SPR binding level was determined as 817 RU.

B2: AS170036 VL1VH1-VLH98F (scFv)
scFv: QSALTQPRSVSGSPGQSVTISCAGTSSDVGSENYVSWYQQHPGKAPKLMIYQVNKRASGVPDRFSGSKSGNTASLTISGLQAEDEADYYCASYRSSDFNIVFGGGTKLTVLGGGGSGGGGSGGGGSEVQLVESGGGLVQPGGSLRLSCAASGFTFSSYAMSWVRQAPGKGLEWVSTINSGTGSPYYADSVKGRFTISRDNSKNTLYLQMNSLRAEDTAVYYCAKNFFDGSWFLGPPAMDYWGQGTLVTVSSHHHHHH
On to B2, for which the binding result in [2], in assay [3], in assay [4], in [5], in [6] and in [7] was “no binding (tested: all below 3.5 RU)” each time. Moreover, the binding result in [8], in [9] and in assay [10] was “no binding (tested: all below 3.5 RU)” throughout. Moreover, the Affinity increase in assay [11] was > 2 fold.

B3: AS170036 VL1VH1-VLH98Q (scFv)
scFv: QSALTQPRSVSGSPGQSVTISCAGTSSDVGSENYVSWYQQHPGKAPKLMIYQVNKRASGVPDRFSGSKSGNTASLTISGLQAEDEADYYCASYRSSDQNIVFGGGTKLTVLGGGGSGGGGSGGGGSEVQLVESGGGLVQPGGSLRLSCAASGFTFSSYAMSWVRQAPGKGLEWVSTINSGTGSPYYADSVKGRFTISRDNSKNTLYLQMNSLRAEDTAVYYCAKNFFDGSWFLGPPAMDYWGQGTLVTVSSHHHHHH
In the case of B3, the binding result in [2], in assay [3], in assay [4], in [5], in [6] and in [7] was “no binding (tested: all below 3.5 RU)” throughout. The binding result in [8] and in assay [10] was “no binding (tested: all below 3.5 RU)” in each case. In addition, the Affinity increase in assay [11] is > 2 fold.

B4: 67-AS170036 VL1VH1-57K98F108A (scFv)
scFv: QSALTQPRSVSGSPGQSVTISCAGTSSDVGSENYVSWYQQHPGKAPKLMIYQVNKRASGVPDRFSGSKSGNTASLTISGLQAEDEADYYCASYRSSDFNIVFGGGTKLTVLGGGGSGGGGSGGGGSEVQLVESGGGLVQPGGSLRLSCAASGFTFSSYAMSWVRQAPGKGLEWVSTINSGTGKPYYADSVKGRFTISRDNSKNTLYLQMNSLRAEDTAVYYCAKNFFDGSWFLAPPAMDYWGQGTLVTVSSHHHHHH
notes: as for B1
In turn, B4 had an SPR binding level in assay [1] of 686 RU.

B5: AS170036 VL1VH1-VLH98I (scFv)
scFv: QSALTQPRSVSGSPGQSVTISCAGTSSDVGSENYVSWYQQHPGKAPKLMIYQVNKRASGVPDRFSGSKSGNTASLTISGLQAEDEADYYCASYRSSDINIVFGGGTKLTVLGGGGSGGGGSGGGGSEVQLVESGGGLVQPGGSLRLSCAASGFTFSSYAMSWVRQAPGKGLEWVSTINSGTGSPYYADSVKGRFTISRDNSKNTLYLQMNSLRAEDTAVYYCAKNFFDGSWFLGPPAMDYWGQGTLVTVSSHHHHHH
For the molecule B5, the binding result in [2], in assay [3], in [4], in assay [5], in assay [6] and in assay [7] was “no binding (tested: all below 3.5 RU)” throughout. The binding result in [8], in [9] and in assay [10] was “no binding (tested: all below 3.5 RU)” throughout. Moreover, the Affinity increase in [11] is > 2 fold.

B6: 49-AS170036 VL1VH1-56N98F108A (scFv)
scFv: QSALTQPRSVSGSPGQSVTISCAGTSSDVGSENYVSWYQQHPGKAPKLMIYQVNKRASGVPDRFSGSKSGNTASLTISGLQAEDEADYYCASYRSSDFNIVFGGGTKLTVLGGGGSGGGGSGGGGSEVQLVESGGGLVQPGGSLRLSCAASGFTFSSYAMSWVRQAPGKGLEWVSTINSGTNSPYYADSVKGRFTISRDNSKNTLYLQMNSLRAEDTAVYYCAKNFFDGSWFLAPPAMDYWGQGTLVTVSSHHHHHH
notes: as for B1
In assay [1], B6 had an SPR binding level of 604 RU.

B7: 82-AS170036 VL1VH1-57M98Q108A (scFv)
scFv: QSALTQPRSVSGSPGQSVTISCAGTSSDVGSENYVSWYQQHPGKAPKLMIYQVNKRASGVPDRFSGSKSGNTASLTISGLQAEDEADYYCASYRSSDQNIVFGGGTKLTVLGGGGSGGGGSGGGGSEVQLVESGGGLVQPGGSLRLSCAASGFTFSSYAMSWVRQAPGKGLEWVSTINSGTGMPYYADSVKGRFTISRDNSKNTLYLQMNSLRAEDTAVYYCAKNFFDGSWFLAPPAMDYWGQGTLVTVSSHHHHHH
notes: as for B1
In assay [1], B7 displayed an SPR binding level of 662 RU.

B8: 75-AS170036 VL1VH1-57K98Q108S (scFv)
scFv: QSALTQPRSVSGSPGQSVTISCAGTSSDVGSENYVSWYQQHPGKAPKLMIYQVNKRASGVPDRFSGSKSGNTASLTISGLQAEDEADYYCASYRSSDQNIVFGGGTKLTVLGGGGSGGGGSGGGGSEVQLVESGGGLVQPGGSLRLSCAASGFTFSSYAMSWVRQAPGKGLEWVSTINSGTGKPYYADSVKGRFTISRDNSKNTLYLQMNSLRAEDTAVYYCAKNFFDGSWFLSPPAMDYWGQGTLVTVSSHHHHHH
notes: as for B1
Regarding B8, in [1], the SPR binding level was determined as 819 RU.

B9: 70-AS170036 VL1VH1-57K98I108A (scFv)
scFv: QSALTQPRSVSGSPGQSVTISCAGTSSDVGSENYVSWYQQHPGKAPKLMIYQVNKRASGVPDRFSGSKSGNTASLTISGLQAEDEADYYCASYRSSDINIVFGGGTKLTVLGGGGSGGGGSGGGGSEVQLVESGGGLVQPGGSLRLSCAASGFTFSSYAMSWVRQAPGKGLEWVSTINSGTGKPYYADSVKGRFTISRDNSKNTLYLQMNSLRAEDTAVYYCAKNFFDGSWFLAPPAMDYWGQGTLVTVSSHHHHHH
notes: as for B1
On to B9, for which the SPR binding level in assay [1] worked out at 807 RU.
